In the nanobody polyreactivity screen of Harvey et al. (2022):

Assay: yeast display, Sf9 membrane polyspecificity reagent, FACS + sequencing; frameworks hold sequencing errors
Outline: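 In a synthetic yeast display library (Saccharomyces cerevisiae BJ5465), nanobody expression was induced with galactose for 36–48 hours. FACS gates were set low and high (top ~1%) using anti-HA fluorescence for expression and streptavidin fluorescence for binding of the Sf9 membrane reagent. Each polyreactivity label is drawn from the gate of origin.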

Sequence	polyreactivity (PSR sort gate)
QVQLVESGGGLVQAGGSLRLSCAASGRIFPRNAMGWYRQAPGKERELVAAISQSGTSTYYADSVKGRFTISRDNAKNTVYLQMNSLKPEDTAVYYCAAVSSSGYYWGQGTQVTVSS	low polyreactivity
QVQLVESGGGLVQAGGSLRLSCAASGFTFGGNAMGWYRQAPGKEREFVAAITRSGGSTYYADSVKGRFTISRDNAKNTVYLQMNSLKPEDTAVYYCAARRSYPLGYDYWGQGTQVTVSS	high polyreactivity
QVQLVESGGGLVQAGGSLRLSCSASGYTFYLYTMGWYRQAPGTERELVAAISGSGTSTYYADSVKGRFTISRDNAKNTVYLQMNSLKPEDTAVYYCAAEDYSRDVYSYYYWGQGTQVTVSS	low polyreactivity
QVQLVESGGGLVQAGGSLRLSCAASGRTFRRYAMGWYRQAPGKERELVATITNAGSTYYADSVKGRFTISRDNAKNTVYLQMNSLKPEDTAVYYCAARVPYISDYWGQGTQVTVSS	low polyreactivity
QVQLVESGGGLVQAGGSLRLSCAASGRTFFQYGMGWYRQAPGKERELVASITRSGGRTNYADSVKGRFTISRDNAKNTVYLQMNSLKPEDTAVYYCAAYYYGSAAYGYGYNYWGQGTQVTVSS	high polyreactivity
QVQLVESGGGLVQAGGSLRLSCAASGSTLDEYAMGWYRQAPGKEREFVAAISWSDGSTYADSVKGRFTISRDNAKNTVYLQMNSLKPEDTAVYYCNAYAYVSLYYSGEYWGQGTQVTVSS	low polyreactivity
QVQLQESGGGLVQAGGSLRLTCAASGTITVLYKRGWFRQAPGKEREFVASINYGTSTYYADSVKGRFTVSRDSAINTVYLQMTSLKPEDTAVDYCAAAYRWQDVYRYWGQGTQVTVSS	low polyreactivity
QVQLVESGGGLVQAGVSLRLSCAASGSIFRWNAMGWYRQAPGKERELVAAITGSGGSTYYADSVKGRFTISRDNAKNTVYLQMNSLKPEDTAVYYCAAKSPRILLDYWGQGTQVTVSS	low polyreactivity
QVQLVESGGGLVQAGGSLRLSCAASGSIFSGNVMGWYRPAPGKERELVAAISGRGGSTYYPDSVKGRFTISRDNAKNTVFLQMNSRNPVDTAVYECAAVYLKTYYWGQGTQVTVSS	high polyreactivity
QVQLVESGGGLVQAGGRLRLSCAASGSTFGAYAMGWYRQAPGKERELVAAIRGSGAGTYYADSVKGRFTISRDNAKNTVYLQMNSLKPEDTAVYYCNTANLRSLGWTFRRYSYEYWGQGTQVTVSS	high polyreactivity
QVQLVESGGGLVQAGGSLRLSCAASGSIFAPYAMGWYRQAPGKERELVAAINNNGGRTYYADSVKGRFTISRDNAKNTVYLQMNSLKPEDTAVYYCAKELGYDWYYRPYGYWGQGTQVTVSS	low polyreactivity
QVQLVESGGGLVQAGGSLRLSCAASGSTFRWYDMGGYRQAPGKEREFVAAITSSGGSTYYADSVKGRFTISRDNAKNTVYLQMNSLKPEYNAVYYCNRRYQPYSYDYWGQGTQVTVSS	high polyreactivity
QVQLVESGGGLVQAGGSLRLSCAASGFTLDWYVMGWYRQATGKERELVAAISSSGGRTYYADSVKGRFTISRDNAKNTVYLQMNSLKPEDTAVYYCAARNQYGGYPYGYDYWGQGTQVTVSS	high polyreactivity
QDQLVESAGGLVQAGGSLRLICAASGSTFALYAMGWYRQAAGTERELVAAISRSGGRTYYADSVKGRFTISRDNPKNTVYLQMNSLKPDDTAVYYCAADFSRPGGLDESWGQGTQVTVSS	high polyreactivity
QGQLVESGGGLVQAGGSLRLSCSASGLIFYRYTMGWYRQAPGKEREVVAAISSGGRTYSADSVKGRFTISRDNAKNTVYLQMNSLKPEDTAVYYCATRVYSVHAPSAVPIGGYYWGQGTQVTVSS	high polyreactivity
QVQLVESGGGLVQAGGSLRLSCAASGSIFLVNAMGWYRQAPGKERELVAAISWGGGSTYYADSVKGRFTISRDNAKNTVYVQMNSLKPEDTAVYYCAAESYYYIRYFDYSRWMGYWGQGTQVTVSS	low polyreactivity

Sequence	polyreactivity (PSR sort gate)
QVQLVESGGGLVQAGCSLRLSCAASGRTFRYYAMGWYRQAPGKERELVAAISWRGGSTYYADSVKGRFTISRDNAKNTVYLQMNSLKPEDTAVYYCAAGILFGHYDYWGQGTQVTVSS	high polyreactivity
QVQLVESGGGLVQAGGTLRISCAPSGSTCVVINMGWYRQAPGKERELVAAISYSGGSTYADSVKGRFTISRDNAKNTVYLQMNSLKLEDTAVYYCAARHYWWYDYWGQGTQVTVSS	low polyreactivity
QVQLVESGGGLVQAGGSLRLSCAASGSTRRYYAMGWYRQAPGKERELVAAITRLGSTNYADSVKGRFTISRDNAKNTVYLQMNSLKPEDTAVYYCNTRWRYRPYRYRGDGGDYWAQGTQVTVSS	high polyreactivity
QVQLVESGGGLVQAGGSLRLSCAASGFTFPNYAMGWYRQAPGKERELVAAITSGGGRTNYADSVKGRFTISRDNAKNTVYLQMNSLKPVDTAVYYCAKTRVRGSEFGYWGQGTQVTVSS	low polyreactivity
QVQLVESGGGLVQAGGSLRLSCAASGIFSRYAMGWYRQAPGKERELVAAISSGGSTYYADSVKGRFTISRDNAKNTVYLQMNSLKPEDTAVYYCAVKQRDKFAGGRNDYWGQGTQVTVSS	high polyreactivity
QVQLVESGGGLVQAGGSLRLSCAASGRIFKRNAMGWYRQAPGKERELVAAISSRVGRTYYADSVKGRFTISRDNAKNTVYLQMNSLKPEDTAVYYCAADTYTYYDYDYWGQGTQVTVSS	high polyreactivity
QVQLVESGGGLVQAGGSLRLSCAASGSTFYPYGMGWYRQAPGNERELVAAITDSGGSTYYADSVKGRFTISRDNAKNTVYLQMNSLKPEDTAVYYCAKTYWYPWRASLWHEYDYWGQGTQVTVSS	low polyreactivity
QVQLVESGGGLVQAGGILRLSCAASGRIFKYNAMGWYRQAPGKERELVAVITSGGSTYYADSVKGRFTISRDNAKNTVYLQMNSLKPEDTAVYYCAKKYYKVHKFDYCGQGTQVTVSS	low polyreactivity
QVQLVESGGGLVQAGGSLRLSCAASGFTFAYYAMGWYRQAPGKERELVAAISSRGGSTYYADSVKGRFTISRDNAKNTVYLQMNSLKPEDTAVYYCAAEFGLWPYEYGYWGQGTQVTVSS	high polyreactivity
QVQLVESAGGLVQAGGSLRLSCAASGRIFNSNAMGWYRQAPGKERELVASITSRGDSTFYADSVKGRFTISRDTAKNTVYLQMNSLKPEDTAVYYCAANGLYYRTPPVYSYDYWGQGTQVTVSS	low polyreactivity
QVQLVESGVGLVQAGGSLRLSCAASGSIFIRNAMGWYRQAPGKERELVAAISGSGSSTYYADSVKGRFTISRDTAKNTVYLQMNILKPEDTAVYYCNTDRTHSYQYGGYDYWGQGTQVTVSS	low polyreactivity
QVQLVESGGGLVQAGGSLRLSCAASGYTFAFYAMGWYRQAPGKERELVAAISAGGGRTYYADSVKGRFTISRDNAKNTVYLQMNSLKPEDTAVYYCATDLIQGAAPFRYDYWGQGTQVTVSS	low polyreactivity
QVQLVESGGGLVQAGGSLRLSCAASGRIFYPYAMGWYRQAPGKERELVAAITWSTGRTYYADSVKGRFTISRDNAKNTVYLQMNSLKPEDTAVYYCAATGTLKRRYGYWGQGTQVTVSS	high polyreactivity
QVQLVESGGGLVQAGGSLRLSCAASGSTFKPNAMGWYRQAPGKERELVAAITSGSTYYADSVKGRFTISRDNAKNTVYLQMNSLKPEDTAVYYCAVVTGSFRTRYTYYYWGQGTQVTVSS	high polyreactivity
QVQLVESGGGLVQAGGSLRLSCAASGLIFRRYALGWYRQAPGKERELVAVISSGGRTYYADSVKGRFTISRDNAKNTVYLQMNSLKPEDTAVYYCAARTRSYWGTYGSYHYDYWGQGTQVTVSS	high polyreactivity
QVQLVESGGGLVQAGGRLRLSCAASGSIFPYYAMGWDRQAPGKERELVASINQSDGTRYYADSVKGRFTISRDNAKNTVYLQMNSLKPEDTAVYYCAADTTLQAFIRYRPMGSYDSWGQGTQVTVSS	low polyreactivity
